Assay [1] addresses ZIKV envelope protein (E) in infected Vero cells (Zika virus (MR766 strain)). As to the kind of experiment: proximity ligation.
Assay [2] shares this target. As to the kind of experiment: proximity ligation. This is another data set of the same source.

Like-named read-outs stand apart in the source and are kept apart here. Where only a bound is given, the exact number is not on record here.

Take “naturally occurring dynein (cytoplasmic dynein-1) of Vero cells, detected by its heavy chain (natural protein)”: the PLA dots per cell (dots per cell) in assay [1] was above 6; in assay [2], below 1.

The record behind these values is article doi:10.1101/2022.06.15.496315.
